Target: gsk3b_human GSK3B (UniProt P49841)
Sequence (P49841 whole entry, looked up): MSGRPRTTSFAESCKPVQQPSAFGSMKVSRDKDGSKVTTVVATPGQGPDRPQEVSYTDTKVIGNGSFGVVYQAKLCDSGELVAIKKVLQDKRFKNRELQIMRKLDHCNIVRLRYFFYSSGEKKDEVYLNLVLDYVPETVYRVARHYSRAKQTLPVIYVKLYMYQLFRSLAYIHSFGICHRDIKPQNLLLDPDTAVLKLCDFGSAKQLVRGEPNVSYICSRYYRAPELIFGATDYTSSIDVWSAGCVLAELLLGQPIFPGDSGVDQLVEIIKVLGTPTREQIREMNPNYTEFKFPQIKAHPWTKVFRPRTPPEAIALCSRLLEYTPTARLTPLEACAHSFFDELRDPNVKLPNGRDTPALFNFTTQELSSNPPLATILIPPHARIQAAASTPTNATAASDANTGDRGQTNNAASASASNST

Chain of Tuberin (Rattus norvegicus (Rat)), P49816 S1389A (P49816 whole entry S1389A): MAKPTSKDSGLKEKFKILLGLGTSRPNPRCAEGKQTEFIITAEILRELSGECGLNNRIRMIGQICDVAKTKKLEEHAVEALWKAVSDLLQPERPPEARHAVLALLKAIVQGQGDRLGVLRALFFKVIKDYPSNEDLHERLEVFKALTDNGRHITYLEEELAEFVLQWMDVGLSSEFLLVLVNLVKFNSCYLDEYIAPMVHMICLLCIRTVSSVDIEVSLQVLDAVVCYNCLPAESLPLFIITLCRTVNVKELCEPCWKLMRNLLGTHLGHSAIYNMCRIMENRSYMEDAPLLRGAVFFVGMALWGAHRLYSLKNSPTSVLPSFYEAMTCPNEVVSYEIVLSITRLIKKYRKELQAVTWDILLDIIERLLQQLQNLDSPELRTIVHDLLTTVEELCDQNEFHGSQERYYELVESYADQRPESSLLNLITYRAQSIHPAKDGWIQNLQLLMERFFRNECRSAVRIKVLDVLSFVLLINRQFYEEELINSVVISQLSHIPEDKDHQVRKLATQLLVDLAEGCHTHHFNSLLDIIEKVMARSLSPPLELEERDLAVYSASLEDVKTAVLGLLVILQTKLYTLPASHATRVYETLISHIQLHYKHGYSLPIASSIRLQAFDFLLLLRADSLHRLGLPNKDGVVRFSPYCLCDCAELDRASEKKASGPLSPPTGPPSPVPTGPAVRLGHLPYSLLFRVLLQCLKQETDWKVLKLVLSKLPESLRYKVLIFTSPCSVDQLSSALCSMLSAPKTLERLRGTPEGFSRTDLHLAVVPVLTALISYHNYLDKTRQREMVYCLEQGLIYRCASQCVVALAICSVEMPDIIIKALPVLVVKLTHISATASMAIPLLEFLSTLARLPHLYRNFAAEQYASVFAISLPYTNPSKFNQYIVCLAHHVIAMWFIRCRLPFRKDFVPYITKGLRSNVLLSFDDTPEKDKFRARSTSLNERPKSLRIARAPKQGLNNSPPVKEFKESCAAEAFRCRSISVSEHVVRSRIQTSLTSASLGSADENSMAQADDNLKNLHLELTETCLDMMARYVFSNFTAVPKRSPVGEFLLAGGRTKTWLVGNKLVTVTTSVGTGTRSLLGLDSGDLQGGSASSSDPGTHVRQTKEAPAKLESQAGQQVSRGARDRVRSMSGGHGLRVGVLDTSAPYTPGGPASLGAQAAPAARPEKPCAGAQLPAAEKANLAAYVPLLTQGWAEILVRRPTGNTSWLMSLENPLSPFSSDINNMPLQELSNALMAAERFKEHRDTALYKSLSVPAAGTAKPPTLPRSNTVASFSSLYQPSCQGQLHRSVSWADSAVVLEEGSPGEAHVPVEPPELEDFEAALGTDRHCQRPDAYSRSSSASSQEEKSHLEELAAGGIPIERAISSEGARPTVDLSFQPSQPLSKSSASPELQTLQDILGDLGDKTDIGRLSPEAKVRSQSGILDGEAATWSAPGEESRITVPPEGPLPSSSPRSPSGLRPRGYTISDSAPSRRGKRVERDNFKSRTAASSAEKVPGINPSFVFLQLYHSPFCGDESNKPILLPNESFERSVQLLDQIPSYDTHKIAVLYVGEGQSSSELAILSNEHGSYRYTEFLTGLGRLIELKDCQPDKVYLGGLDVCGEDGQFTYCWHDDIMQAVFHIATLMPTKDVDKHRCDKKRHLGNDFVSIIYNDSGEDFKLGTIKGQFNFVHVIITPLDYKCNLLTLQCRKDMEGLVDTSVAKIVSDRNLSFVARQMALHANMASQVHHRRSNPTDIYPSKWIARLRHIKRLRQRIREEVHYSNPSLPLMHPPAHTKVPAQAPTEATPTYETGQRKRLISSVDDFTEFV

Tuberin (Rattus norvegicus (Rat)), P49816 S1389A
effect of a mutation on the interaction: disrupting interaction

Source: IntAct's records for PubMed 16959574
